Source: the supplement of paper PMC12042874
± gives the uncertainty stated by the source.

assay: amyloid nucleation score (Sup35N fusion, yeast selection) (log enrichment); library NNK1; higher = more nucleation; inactive = no reads after selection
Method in brief: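 Yeast lacking psi expressed peptides of 20 random codons fused to Sup35N, received 100 μM copper sulfate for 24 hours, and were then grown for 7 days at 30°C on medium lacking adenine and uracil. Illumina sequencing of input and output plasmid inserts provided the reads. Nucleation scores are DiMSum log enrichments of output over input, centred on the mode of non-aggregating sequences. Any sequence with under 100 input reads was excluded.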

Substance	amyloid nucleation score
HSQLLGMPFTSSVDS	0.635 ± 0.97
CDKKWIASQSMVGRRTMV	inactive
QRFHFLNRL	-0.411 ± 1.1
NLQVKFVVYIMPLQKD	0.747 ± 0.44
WCKILYAKQERWP	0.677 ± 0.44
WCSTQLVRKIKVFEKSERGV	-1.07 ± 2.1
VWRTEQ	-0.533 ± 0.66
FCKCNQVFISCLCGSTKHTG	3.59 ± 0.1
VFCVSRTINGYN	-0.374 ± 0.48
YVVWDICKRVLLQWRYPPFS	-0.077 ± 1.7
LTLFQYAFDVHETAVLKLEW	-0.166 ± 0.4
CNKNNCWCYHCSYQVWHALY	0.381 ± 0.42
VVCRCTYFRLITGDSSL	-0.136 ± 0.8
KPLEDFVDYKMMLMIHEEVC	0.763 ± 0.97
HMFIFPYGAFMMERLFSGAI	0.198 ± 0.97
NNKGSLSPGNLDTSDESEFS	0.652 ± 0.29
WWLFHVFLLKRQSITNAGVR	inactive
SVVLMLKYRYMHLTGLWSWS	0.16 ± 0.46
AVEGCVFCWIRCVIRFLV	-0.642 ± 0.69
PSYLCYVIPPPCINLVPMYP	-0.177 ± 0.23
AIMCKYLRKLVLMFFSR	0.811 ± 0.55
AGWYINYTGKRDDARLLY	0.187 ± 0.86

Substance	amyloid nucleation score
VGNWYPGIG	inactive
LPSGLRCRTSRMDVAKLAK	0.441 ± 0.47
WDATLNKITYKRSLVGSVSK	0.275 ± 0.58
VPMPGNDQWDGKRGYICIRS	1.31 ± 0.48
YLRPGCSSVRSNATMGNSYL	0.641 ± 0.45
LPSSGA	-0.019 ± 0.64
VMWGQPCQIFSGYAYLRHKV	0.053 ± 0.48
VMSSKDKLIWYTFL	5.199 ± 0.049
VTYTISRELSFCPPITFGTL	0.777 ± 0.73
LTITGSFIHPI	-0.739 ± 0.79
CLSNM	inactive
TWCIAVVSEILLLHI	inactive
IGAGPRL	-0.623 ± 0.27
MCREYVFDNSPVT	-0.89 ± 1.2
SHIHCFFDDTTNTKKLVWPW	-0.563 ± 0.45
CSRTRRSHSIECACCKYIFA	-0.343 ± 0.47
YTAACTRSNCYMCPVSAVGW	0.214 ± 0.86
CMSRSYYYTSPKDPKEFNC	0.56 ± 0.33
WCVLTSMEAYWFGLSRN	0.869 ± 0.54
LSCSFDESW	0.024 ± 0.24
NPAEL	0.222 ± 0.54
KVIFQVYYI	7.46 ± 0.047

Substance	amyloid nucleation score
VYMMGGTLLRPYAILSYLDP	0.465 ± 0.3
IGSVCLQ	inactive
AYPLKTFIFYHGLMIWFNAM	0.827 ± 0.84
KSVDFTYDEGRSTAVIVYHF	0.223 ± 0.29
VCKITDLAARCHSREFWESR	0.253 ± 0.25
DLFFIG	0.188 ± 0.38
CMAGRNSFKLYMRRFNEENY	inactive
FSMVAESRIEGILRFS	0.409 ± 0.22
NYRISAYCDSHVRRLPEYMF	0.175 ± 0.59
KRHVSGKVQMGWGVRRRPV	0.178 ± 0.72
SSNFLRILIGTFVRYRV	0.073 ± 0.37
YWRVVGITIWVVQDLIFGEG	-0.783 ± 1
RCVKASLYDGEYMKLMDGVM	-0.407 ± 0.45
YIDVFVSRVLHSGFERSDVV	0.745 ± 0.2
ALVGMRQITEILVTRDRQWG	0.332 ± 0.27
LFILPCQVNLHECMVLCLFE	5.91 ± 0.06
RRWALRYINSATLFFLKVIG	-0.661 ± 0.93
ESHMRNHR	0.312 ± 0.37
FLNFPYMLRDCLMIRFIELE	inactive
THARMKFLWFARF	-0.282 ± 0.83
LNRSNWANFCMAEFMDPRS	0.488 ± 0.58
VWDSFSHVLVRLGIYLFFYV	0.763 ± 0.42

Substance	amyloid nucleation score
MAGPYLVERRSMWASNARAE	-1.07 ± 1.4
GSGNVRL	-1.61 ± 2.4
SFDNCLFVVVAAAIVNQPVC	5.83 ± 0.09
VRVPLRSKMSNPRLMSRQAA	0.089 ± 0.49
VKVHEDSIRMEENSSDTYFK	-0.218 ± 0.34
CSTRGFGGD	-0.921 ± 1.1
SYCFFYDDMRTWWFYS	4.4 ± 0.11
CYCLNAGVSMADHSVPPRVF	0.912 ± 0.71
YVHQRGNNTSAMLAWVLPRH	-0.766 ± 0.5
QVTNRMRLRLMYR	0.699 ± 0.37
IYVYWSDISV	0.907 ± 0.42
EVVFNYTKHQVTIAV	inactive
RLTLLRLVLV	0.945 ± 0.51
LCSMTKTNVVRSECRVLTRR	1.86 ± 0.65
VMYHGVLYLVNKKVRAWVVG	-0.511 ± 0.76
SMYVPCRFSTDSTMLPNELK	-0.19 ± 0.66
DLFDFFRRRYHFRCFVSSIW	-1.52 ± 2.4
NCVTTNIGFN	0.124 ± 0.9
ALYKSPLVNRSYAFLYSGA	0.964 ± 0.69
MRVHFLE	0.136 ± 0.41
NSSVGVESHIFSIVDKMNTW	inactive
NKGALRLRFYGIFEVECVVE	1.09 ± 0.4
